Data as given in patent EP1418184A1.

Molecular target: IL-12 receptor on activated peripheral blood lymphocytes (human) (UniProt P42701)
Assay: cell-based or functional assay

HRS3-scFv-hi-IL-12 fusion protein
IFN-gamma secretion of preactivated T cells (ELISA, 48 h), activity against natural IL-12 at equimolar amounts (times lower than IL-12): 5 to 10
